Measurements as given in PMC2753473.
Where two headings read alike, the source gives them in different places.

Assays:
[1] = target: photoactivated rhodopsin (Rho*, Meta II) (bovine) (UniProt P02699); assay: SEC
[2] = target: photoactivated rhodopsin (Rho*, Meta II) (bovine) (UniProt P02699); assay: SEC; remark: listed apart in the source

Chain of photoactivated rhodopsin (Rho*, Meta II) (bovine) (P02699 whole entry): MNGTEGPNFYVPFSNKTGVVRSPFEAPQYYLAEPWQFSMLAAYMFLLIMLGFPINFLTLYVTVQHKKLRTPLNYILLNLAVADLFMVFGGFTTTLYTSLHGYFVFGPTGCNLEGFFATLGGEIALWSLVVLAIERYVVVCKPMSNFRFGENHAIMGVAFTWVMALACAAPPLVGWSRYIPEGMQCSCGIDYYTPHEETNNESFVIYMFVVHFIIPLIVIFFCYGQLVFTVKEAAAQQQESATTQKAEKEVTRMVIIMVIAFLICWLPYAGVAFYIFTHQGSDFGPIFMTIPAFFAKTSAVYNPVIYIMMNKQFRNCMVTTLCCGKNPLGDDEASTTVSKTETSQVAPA

- stoichiometry N (Rho*:Gt molar ratio) [1]: 1
- stoichiometry N (Rho*:Gt molar ratio) [2]: 1
Substance: transducin (Gt), rod cell-specific heterotrimeric G protein (from UniProt P04695 1-350; P62871 1-340; P02698 1-74) (complex)
